Publication doi:10.1101/2022.02.09.479746 (bioRxiv, 2022)
Substitutions are numbered along the chain they refer to. Numbers in names are those of the source.

B1: MBP-DFCP1 112-415 (isolated GTPase domain), wild type (domain or fragment, human, UniProt Q9HBF4 112-415, looked up)
chain: NKRRHPVTVYNVSNLQESLEAEEMDEETKRKKMTEKVVSFLLVDENEEIQVTNEEDFIRKLDCKPDQHLKVVSIFGNTGDGKSHTLNHTFFYGREVFKTSPTQESCTVGVWAAYDPVHKVAVIDTEGLLGATVNLSQRTRLLLKVLAISDLVIYRTHADRLHNDLFKFLGDASEAYLKHFTKELKATTARCGLDVPLSTLGPAVIIFHETVHTQLLGSDHPSEVPEKLIQDRFRKLGRFPEAFSSIHYKGTRTYNPPTDFSGLRRALEQLLENNTTRSPRHPGVIFKALKALSDRFSGEIPDDQ
B2: MBP-DFCP1 112-415 R266Q (GTPase domain with the cancer-related mutation R266Q) (domain or fragment, human, UniProt Q9HBF4 112-415, looked up)
chain: B1 chain with R155Q
B3: full-length FLAG-DFCP1 (Double FYVE Domain Containing Protein 1) (natural protein, human, UniProt Q9HBF4 1-777, looked up)
chain: MSAQTSPAEKGLNPGLMCQESYACSGTDEAIFECDECCSLQCLRCEEELHRQERLRNHERIRLKPGHVPYCDLCKGLSGHLPGVRQRAIVRCQTCKINLCLECQKRTHSGGNKRRHPVTVYNVSNLQESLEAEEMDEETKRKKMTEKVVSFLLVDENEEIQVTNEEDFIRKLDCKPDQHLKVVSIFGNTGDGKSHTLNHTFFYGREVFKTSPTQESCTVGVWAAYDPVHKVAVIDTEGLLGATVNLSQRTRLLLKVLAISDLVIYRTHADRLHNDLFKFLGDASEAYLKHFTKELKATTARCGLDVPLSTLGPAVIIFHETVHTQLLGSDHPSEVPEKLIQDRFRKLGRFPEAFSSIHYKGTRTYNPPTDFSGLRRALEQLLENNTTRSPRHPGVIFKALKALSDRFSGEIPDDQMAHSSFFPDEYFTCSSLCLSCGVGCKKSMNHGKEGVPHEAKSRCRYSHQYDNRVYTCKACYERGEEVSVVPKTSASTDSPWMGLAKYAWSGYVIECPNCGVVYRSRQYWFGNQDPVDTVVRTEIVHVWPGTDGFLKDNNNAAQRLLDGMNFMAQSVSELSLGPTKAVTSWLTDQIAPAYWRPNSQILSCNKCATSFKDNDTKHHCRACGEGFCDSCSSKTRPVPERGWGPAPVRVCDNCYEARNVQLAVTEAQVDDEGGTLIARKVGEAVQNTLGAVVTAIDIPLGLVKDAARPAYWVPDHEILHCHNCRKEFSIKLSKHHCRACGQGFCDECSHDRRAVPSRGWDHPVRVCFNCNKKPGDL

Target: the molecule itself
Assay: SEC

Protein	stoichiometry N
B1	2
B2	2
B3	2
